The results in this text go back to patent publication US20230102344A1 (MARENGO THERAPEUTICS, published 2023).

One experiment concerns the target T1, human TCRvβ (BIM0444) (human).
T1 construct: also called human TCRβvP; human TCRvβ 6-5
The experiment in a line: SPR (Biacore): antibody captured via anti-human Fc on CM5, BIM0444 as analyte, 1:1 fit. In general terms: In SPR one partner is held on a chip, and binding of the other changes the refractive index at the surface.

The next experiment deals with T2, Human NKp30 (BKM0179) (human, UniProt O14931 19-135, limits assumed).
T2 sequence (looked up): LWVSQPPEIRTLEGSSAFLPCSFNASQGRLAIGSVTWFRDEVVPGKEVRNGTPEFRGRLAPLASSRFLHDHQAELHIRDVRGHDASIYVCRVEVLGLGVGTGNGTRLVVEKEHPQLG
Description: SPR (Biacore T200): human NKp30 BKM0179 captured via anti-mouse Fc on CM5, antibody as analyte, 1:1 fit.

Experiment [1] concerns the target T3, CD33 expressed on cells (MOLM-13, MV411, HL60) (human, UniProt P20138 18-364).
T3 construct: whole, on cells; also called CD33+ MOLM-13 cells; CD33-expressing MOLM-13 cells
The experiment in a line: binding to CD33+ MOLM-13 cells (cell binding assay).

Residue numbers refer to the chain shown, from its start. Names may count otherwise.

T1 sequence (A0A0K0K1A5 22-114): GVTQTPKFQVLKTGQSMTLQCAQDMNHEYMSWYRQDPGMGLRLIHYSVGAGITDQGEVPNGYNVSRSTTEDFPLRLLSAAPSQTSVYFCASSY
T3 sequence (P20138 18-364): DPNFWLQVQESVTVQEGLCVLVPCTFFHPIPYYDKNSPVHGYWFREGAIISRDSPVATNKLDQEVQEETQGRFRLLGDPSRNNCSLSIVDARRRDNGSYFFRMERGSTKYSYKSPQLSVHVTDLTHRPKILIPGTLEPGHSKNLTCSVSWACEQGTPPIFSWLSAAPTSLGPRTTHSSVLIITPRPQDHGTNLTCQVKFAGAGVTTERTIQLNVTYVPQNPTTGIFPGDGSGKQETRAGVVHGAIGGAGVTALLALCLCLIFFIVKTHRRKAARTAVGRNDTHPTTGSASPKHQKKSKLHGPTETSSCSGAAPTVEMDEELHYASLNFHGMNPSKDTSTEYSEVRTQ

B1: BJM0898 (antibody, V domains shown)
VH: QVQLVQSGAEVKKPGSSVKVSCKASGTDFKLTYIHWVRQAPGQGLEWMGRIFPGSGNVKYNEKFKGRVTITADTSTSTAYMELSSLRSEDTAVYYCAVSYYSYDVLDYWGQGTTVTVSS
VL: DIQMTQSPSFLSASVGDRVTITCKASQNVDNRVAWYQQKPGKAPKALIYSSSHRYKGVPSRFSGSGSGTEFTLTISSLQPEDFATYFCQQFKSYPLTFGQGTKLEIK
In the experiment with human TCRvβ (BIM0444), B1 had a Kd of 11 nM.

B2: BJM0900 (antibody, V domains shown)
VH: B1 VH with T27H, K30R, F52S, P53A
VL: B1 VL with D30A, N31D
The molecule B2 had a Kd with human TCRvβ (BIM0444) of 2.7 nM.

B3: BJM1078 (antibody, V domains shown)
VH: EIQLLESGGGLVQPGGSLRLSCAVSGFSITTTGYHWNWVRQAPGKGLEWVGYIYSSGSTSYNPSLKSRFTISRDTSKNTFYLQMNSLRAEDTAVYYCARGDWHYFDYWGQGTMVTVSS
VL: SSETTQPPSVSVSPGQTASITCSGEKLSDKYVHWYQQKPGQSPVMVIYENDRRPSGIPERFSGSNSGNTATLTISGTQAMDEADYFCQFWDSTNSAVFGGGTQLTVL
notes: only 'BJM0407 Parental'; also called BJM0407 Parental
Consider B3, for which the Kd in the experiment with Human NKp30 (BKM0179) was 1.48 nM.

B4: BJM0387 (bispecific antibody, not shown: a dimerising Fc or GST; large carriers)
heavy: QVQLVQSGAEVKKPGSSVKVSCKASGYSFTTYYIHWVRQAPGQGLEWMGWFFPGSGNIKYNEKFKGRVTITADTSTSTAYMELSSLRSEDTAVYYCAGSYYSYDVLDYWGQGTTVTVSSGGGGSGGGGSGGGGSGGGGSDIQMTQSPSFLSASVGDRVTITCKASQNVGINVVWHQQKPGKAPKALIYSSSHRYSGVPSRFSGSGSGTEFTLTISSLQPEDFATYFCQQFKSYPLTFGQGTKLEIKGGGGSQVQLVQSGAEVKKPGSSVKVSCKASGYTFTDYNMHWVRQAPGQGLEWIGYIYPYNGGTGYNQKFKSKATITADESTNTAYMELSSLRSEDTAVYYCARGRPAMDYWGQGTLVTVSS
light: DIQMTQSPSSLSASVGDRVTITCRASESVDNYGISFMNWFQQKPGKAPKLLIYAASNQGSGVPSRFSGSGSGTDFTLTISSLQPDDFATYYCQQSKEVPWTFGQGTKVEIK
notes: also called anti-CD33×TCRvβ antibody BJM0387
Consider B4, for which, in experiment [1], the binding result is “binds”.

B5: BKM0140 (scFv)
scFv: EIQLLESGGGLVQPGGSLRLSCAVSGFSITTTGYHWNWVRQAPGKGLEWVGYIYSSGSTSYNPSLKSRFTISRDTSKNTFYLQMNSLRAEDTAVYYCARGDWHYFDYWGQGTMVTVSSGGGGSGGGGSGGGGSGGGGSSSETTQPPSVSVSPGQTASITCSGEKLSDKYVHWYQQKPGQSPVMVIYENDRRPSGIPERFSGSNSGNTATLTISGTQAMDEADYFCQFWASTNSAVFGGGTQLTVL
notes: also called BJM0407 VL-D92A
B5: the affinity with Human NKp30 (BKM0179), expressed as Kd, was 3.3 nM.

B6: BKM0141 (scFv)
scFv: B5 scFv with A229D, N232A
notes: also called BJM0407 VL-N95A
As for B6, binding with Human NKp30 (BKM0179) was characterised by a dissociation constant (Kd) of 3 nM.

B7: BKM0145 (scFv)
scFv: B5 scFv with N62A, N232A
notes: also called BJM0407 VH-N60A-VL-D92A-N95A
Turning to B7, the affinity with Human NKp30 (BKM0179), expressed as Kd, was 4.2 nM.

B8: BKM0143 (scFv)
scFv: B5 scFv with N62A, A229D
notes: also called BJM0407 VH-N60A
In the experiment with Human NKp30 (BKM0179), B8 yielded a Kd of 1.45 nM.

B9: BJM1079 (scFv)
scFv: EIQLLESGGGLVQPGGSLRLSCAVSGFSITTTGYHWNWVRQAPGKGLEWVGYIYSSGSTSYNPSLKSRFTISRDTSKNTFYLQMNSLRAEDTAVYYCARGDWHYFDYWGQGTMVTVSSGGGGSGGGGSGGGGSGGGGSDSVTTQSPLSLPVTLGQPASISCSGEKLSDKYVHWYQQRPGQSPRMLIYENDRRPSGVPDRFSGSNSGNDATLKISRVEAEDVGVYFCQFWDSTNSAVFGGGTKVEIK
notes: only 'BJM0411 Parental'; also called BJM0411 Parental
As for B9, the Kd with Human NKp30 (BKM0179) came to 1.26 nM.

B10: BKM0138 (scFv)
scFv: B9 scFv with N233A
notes: also called BJM0411 VL-N95A
B10 registered a Kd with Human NKp30 (BKM0179) of 3.2 nM.

B11: BKM0142 (scFv)
scFv: B9 scFv with N62A
notes: also called BJM0411 VH-N60A
The molecule B11 yielded a Kd with Human NKp30 (BKM0179) of 1.28 nM. Against the preceding molecule, the Kd is about 2.5-fold lower.

B12: BKM0144 (scFv)
scFv: B9 scFv with N62A, D230A, N233A
notes: also called BJM0411 VH-N60A-VL-D92A-N95A
Regarding B12, binding in the experiment with Human NKp30 (BKM0179) was put at a Kd of 6.4 nM.

B13: BKM0139 (scFv)
scFv: B9 scFv with D230A
notes: also called BJM0411 VL-D92A
In turn, B13 gave a Kd in the experiment with Human NKp30 (BKM0179) of 3.2 nM.

As usually defined, the Kd is the free concentration of one partner at which half of the binding sites on the other are occupied at equilibrium, for simple one-to-one binding. High values mean lower affinity, low ones higher affinity.
